PMC3679926

What was measured:
p53 (rp53) [1] = target: T1, p53 (rp53) (UniProt P04637 1-393); test: EMSA
p53 (rp53) [2] = target: T1, p53 (rp53); test: competition

T1 sequence (P04637 whole entry): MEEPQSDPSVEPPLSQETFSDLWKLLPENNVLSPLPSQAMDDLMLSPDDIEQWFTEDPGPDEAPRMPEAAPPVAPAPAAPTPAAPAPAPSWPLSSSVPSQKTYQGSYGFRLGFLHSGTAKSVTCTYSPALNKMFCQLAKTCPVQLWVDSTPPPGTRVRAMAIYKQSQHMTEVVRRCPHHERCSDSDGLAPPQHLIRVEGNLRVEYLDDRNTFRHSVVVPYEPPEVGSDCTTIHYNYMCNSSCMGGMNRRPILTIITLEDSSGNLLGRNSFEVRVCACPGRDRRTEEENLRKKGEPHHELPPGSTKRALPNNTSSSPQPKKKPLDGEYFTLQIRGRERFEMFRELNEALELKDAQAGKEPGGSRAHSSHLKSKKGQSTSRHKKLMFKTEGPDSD

B1: p53RE wt (miR-205 upstream p53BS) (dsDNA)
DNA 1: ACTGAGCCATGGGCATGTCTGAACACAACA
DNA 2: TGTTGTGTTCAGACATGCCCATGGCTCAGT
Question: Does B1 bind (p53 (rp53) [1])?
Answer: binds

B2: p53RE wt, unlabeled competitor (dsDNA)
DNA 1: ACTGAGCCATGGGCATGTCTGAACACAACA
DNA 2: TGTTGTGTTCAGACATGCCCATGGCTCAGT
Question: Does B2 bind (p53 (rp53) [2])?
Answer: binds

B3: p53RE MUT (dsDNA)
DNA 1: ACTGAGCCATCCCGGCCGGCGAACACAACA
DNA 2: TGTTGTGTTCGCCGGCCGGGATGGCTCAGT
Question: Does B3 bind (p53 (rp53) [1])?
Answer: no binding
